Data published in IntAct's records for PubMed 31015422.

B1: Tumor necrosis factor alpha-induced protein 3 (Homo sapiens), P21580 (parent)
chain: MAEQVLPQALYLSNMRKAVKIRERTPEDIFKPTNGIIHHFKTMHRYTLEMFRTCQFCPQFREIIHKALIDRNIQATLESQKKLNWCREVRKLVALKTNGDGNCLMHATSQYMWGVQDTDLVLRKALFSTLKETDTRNFKFRWQLESLKSQEFVETGLCYDTRNWNDEWDNLIKMASTDTPMARSGLQYNSLEEIHIFVLCNILRRPIIVISDKMLRSLESGSNFAPLKVGGIYLPLHWPAQECYRYPIVLGYDSHHFVPLVTLKDSGPEIRAVPLVNRDRGRFEDLKVHFLTDPENEMKEKLLKEYLMVIEIPVQGWDHGTTHLINAAKLDEANLPKEINLVDDYFELVQHEYKKWQENSEQGRREGHAQNPMEPSVPQLSLMDVKCETPNCPFFMSVNTQPLCHECSERRQKNQNKLPKLNSKPGPEGLPGMALGASRGEAYEPLAWNPEESTGGPHSAPPTAPSPFLFSETTAMKCRSPGCPFTLNVQHNGFCERCHNARQLHASHAPDHTRHLDPGKCQACLQDVTRTFNGICSTCFKRTTAEASSSLSTSLPPSCHQRSKSDPSRLVRSPSPHSCHRAGNDAPAGCLSQAARTPGDRTGTSKCRKAGCVYFGTPENKGFCTLCFIEYRENKHFAAASGKVSPTASRFQNTIPCLGRECGTLGSTMFEGYCQKCFIEAQNQRFHEAKRTEEQLRSSQRRDVPRTTQSTSRPKCARASCKNILACRSEELCMECQHPNQRMGPGAHRGEPAPEDPPKQRCRAPACDHFGNAKCNGYCNECFQFKQMYG

Variants of: B1
Settings: with ATG16L1, Q676U5-1
Chain of ATG16L1, Q676U5-1 (Q676U5 whole entry): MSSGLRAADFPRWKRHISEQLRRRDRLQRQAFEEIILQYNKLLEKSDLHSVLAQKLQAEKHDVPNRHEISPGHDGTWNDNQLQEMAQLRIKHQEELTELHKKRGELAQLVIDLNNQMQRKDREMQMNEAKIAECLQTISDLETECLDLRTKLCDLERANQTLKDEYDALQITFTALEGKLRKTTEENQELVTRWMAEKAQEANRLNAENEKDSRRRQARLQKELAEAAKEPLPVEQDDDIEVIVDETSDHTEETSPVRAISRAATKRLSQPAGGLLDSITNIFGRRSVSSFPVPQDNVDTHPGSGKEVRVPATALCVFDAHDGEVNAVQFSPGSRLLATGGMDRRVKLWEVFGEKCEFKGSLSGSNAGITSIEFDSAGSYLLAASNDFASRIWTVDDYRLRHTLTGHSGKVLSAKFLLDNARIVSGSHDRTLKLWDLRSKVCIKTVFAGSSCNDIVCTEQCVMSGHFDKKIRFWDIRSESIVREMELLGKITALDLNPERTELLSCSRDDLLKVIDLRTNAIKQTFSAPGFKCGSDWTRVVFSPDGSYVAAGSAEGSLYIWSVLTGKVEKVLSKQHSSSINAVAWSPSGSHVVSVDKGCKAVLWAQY

Row | effect of a mutation on the interaction | Variant
1 | with no effect | W168A;L171A
2 | with no effect | A125V
3 | with no effect | F257A;L260A
4 | with no effect | F224A;L227A
5 | with no effect | F127C

Continued, variant first:

Row | Variant | effect of a mutation on the interaction
6 | F127A;L130A | with no effect
7 | Y233A;L236A | with no effect
8 | Y246A;V249A | with no effect
9 | Y188A;L191A | with no effect
